Results published in patent publication US20250223354A1 (BIOTHEUS, published 2025).

T1: mouse TIGIT overexpressed on CHO cells (mouse, UniProt P86176 29-249)
T1 construct: whole, on cells; also called CHO-muTIGIT cells
T1 sequence (looked up): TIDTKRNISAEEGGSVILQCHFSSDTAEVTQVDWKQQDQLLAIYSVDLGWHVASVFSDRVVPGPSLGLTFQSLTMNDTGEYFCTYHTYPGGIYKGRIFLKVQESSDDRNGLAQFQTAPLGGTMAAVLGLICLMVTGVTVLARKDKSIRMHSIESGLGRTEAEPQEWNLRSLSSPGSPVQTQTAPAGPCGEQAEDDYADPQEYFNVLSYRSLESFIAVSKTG

T2: human TIGIT expressed on cells (human, UniProt Q495A1 22-244)
T2 construct: whole, on cells; cDNA encoding human TIGIT in pCHO1.0 for CHO cells; also called CHO-huTIGIT cells
T2 sequence (looked up): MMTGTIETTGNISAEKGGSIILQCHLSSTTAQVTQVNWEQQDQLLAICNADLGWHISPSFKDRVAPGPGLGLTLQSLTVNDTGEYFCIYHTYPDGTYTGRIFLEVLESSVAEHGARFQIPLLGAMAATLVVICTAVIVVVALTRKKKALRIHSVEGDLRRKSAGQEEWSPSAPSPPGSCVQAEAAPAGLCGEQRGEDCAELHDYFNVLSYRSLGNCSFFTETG

B1: anti-TIGIT monoclonal antibody 55796-G1 (antibody, V domains shown)
VH: QLQLQESGPGLVKPAETLSLTCTVSGGSISSYDHYWTWIRQPPGKGLEWIGTVYYSGSTFHNPSLKSRVTIPVDTSKNQFSLKLSSVTAADTAVYYCARVGPDVSHPPFDYWGQGTLVTVSS
VL: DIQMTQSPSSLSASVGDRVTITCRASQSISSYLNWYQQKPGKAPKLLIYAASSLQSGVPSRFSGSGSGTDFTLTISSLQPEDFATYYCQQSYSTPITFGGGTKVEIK
notes: Wild-type human IgG1 heavy chain constant region, human kappa light chain constant region
B2: anti-TIGIT monoclonal antibody 55796-G1LALA (antibody, V domains shown)
VH: B1 VH
VL: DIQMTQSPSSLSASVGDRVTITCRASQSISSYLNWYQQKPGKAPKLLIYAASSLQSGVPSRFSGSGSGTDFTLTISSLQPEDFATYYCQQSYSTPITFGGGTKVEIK
notes: Human IgG1 heavy chain constant region modified by L234A, L235A; human kappa light chain constant region; HEK293

Legend:
[1] = target: T1, mouse TIGIT overexpressed on CHO cells; experiment: flow cytometry blocking assay: binding of mouse CD155 protein with mouse IgG2a Fc tag to CHO cells overexpressing mouse TIGIT, median fluorescence intensity APC-A; unit from the concentration axis
Protocol: The CHO-muTIGIT cells were expanded and adjusted to a cell density of 2×10⁶ cells/mL, added to a 96-well flow plate at 100 μL/well, and centrifuged for later use. The purified antibodies were diluted 3-fold with PBS starting at 400 nM for a total of 12 concentration gradients. […] APC-conjugated goat anti-mouse IgG antibody diluted 100-fold with PBS was added at 100 μL/well, incubated at 4° C. for 30 minutes, and washed twice with PBS. Cells were resuspended with PBS at 100 μL/well, and detected on a CytoFlex flow cytometer, and the corresponding MFI was calculated. Graphpad software was used for graphing analysis to obtain IC₅₀ values.

[2] = target: T3, cynomolgus TIGIT overexpressed on CHO cells (cynomolgus, UniProt A0A7N9I9V4 89-312); experiment: flow cytometry, CHO-cynoTIGIT cells
T3 construct: whole, on cells; also called CHO-cynoTIGIT cells
Description: (§1) Specifically, CHO cells overexpressing human TIGIT (CHO-huTIGIT cells), CHO cells overexpressing cynomolgus TIGIT (CHO-cynoTIGIT cells) and CHO cells overexpressing mouse TIGIT (CHO-muTIGIT cells) were generated by transfection of the pCHO1.0 vector (purchased from Invitrogen) with cDNA encoding human TIGIT, cynomolgus TIGIT and mouse TIGIT cloned into the multiple cloning site (MCS), respectively, followed by pressure screening. The overexpressing cells were expanded and adjusted to an appropriate cell density, and added to a 96-well flow cytometry plate. After centrifugation, the cells were added with a gradiently diluted sample to be tested, and incubated at 4° C. for 30 minutes. The cells were washed twice with PBS, and added with a fluorescent secondary antibody correspondingly diluted to an appropriate concentration, then incubated at 4° C. for 30 minutes, and washed twice with PBS. Cells were resuspended with PBS, and detected on a CytoFlex flow cytometer, and the corresponding MFI was calculated. Graphpad software was used for graphical analysis to obtain EC₅₀ values.

[3] = target: T2, human TIGIT expressed on cells; experiment: flow cytometry, CHO-huTIGIT cells
Description: as §1

[4] = target: T3, cynomolgus TIGIT overexpressed on CHO …; experiment: flow cytometry on CHO cells overexpressing cynomolgus TIGIT, median fluorescence intensity PE-A; unit from the concentration axis
Description: as §1

[5] = target: T2, human TIGIT expressed on cells; experiment: flow cytometry on activated human primary T cells (TIGIT), readout positive cell (%); unit from the concentration axis
Description: The binding activity of the anti-TIGIT antibody of the present invention to TIGIT on the surface of activated T cells was detected based on the flow cytometry detection method.
Specifically, human PBMC were sorted according to the experimental protocol provided by […] Company (stemcell, Cat. No.: #17951C) to obtain human total T cells. […] The activated T cells were adjusted to an appropriate cell density and added to a 96-well flow cytometry plate. After centrifugation, the gradiently diluted sample to be tested was added, and incubated at 4° C. for 30 minutes. Washing was carried out twice with PBS, and a fluorescent secondary antibody diluted to an appropriate concentration was added, incubated at 4° C. for 30 minutes, and washed twice with PBS. […]

T3 sequence (A0A7N9I9V4 entry or part of it): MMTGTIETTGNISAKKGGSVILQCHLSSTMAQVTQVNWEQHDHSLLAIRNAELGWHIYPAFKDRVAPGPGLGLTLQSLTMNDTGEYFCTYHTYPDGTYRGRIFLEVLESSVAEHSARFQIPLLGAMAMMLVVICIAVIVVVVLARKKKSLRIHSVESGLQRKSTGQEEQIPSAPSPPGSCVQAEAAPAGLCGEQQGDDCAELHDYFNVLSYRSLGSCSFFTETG

| Binder | IC50 [1] [nM] | EC50 [2] [nM] | EC50 [3] [nM] | EC50 [4] [nM] | EC50 [5] [nM] |
| --- | --- | --- | --- | --- | --- |
| B1 | 1.5 | 1.32 | 0.96 | 1.32 | 0.106 |
| B2 | 1.56 | 1.34 | 0.84 | 1.34 | 0.0878 |
